Assay in all cases: cell-based or functional assay
Assay [1] addresses T1, ADAMTS4 (human, UniProt O75173 213-685, limits assumed).
T1 sequence (looked up): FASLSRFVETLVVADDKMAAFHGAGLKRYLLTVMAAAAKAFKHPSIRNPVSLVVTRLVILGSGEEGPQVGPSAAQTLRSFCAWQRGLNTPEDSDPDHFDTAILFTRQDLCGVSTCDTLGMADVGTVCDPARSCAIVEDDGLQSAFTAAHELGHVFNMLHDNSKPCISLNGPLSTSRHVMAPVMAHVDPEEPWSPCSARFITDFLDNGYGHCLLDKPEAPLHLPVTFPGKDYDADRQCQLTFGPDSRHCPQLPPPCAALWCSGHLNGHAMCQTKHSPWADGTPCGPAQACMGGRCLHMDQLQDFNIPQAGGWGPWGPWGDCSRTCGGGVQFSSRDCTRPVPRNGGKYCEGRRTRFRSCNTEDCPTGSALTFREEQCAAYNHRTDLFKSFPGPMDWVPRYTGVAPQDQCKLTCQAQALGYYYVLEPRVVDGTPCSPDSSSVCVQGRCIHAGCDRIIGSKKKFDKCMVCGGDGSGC

Assay [2] addresses T2, ADAMTS5 (human, UniProt Q9UNA0 262-622, limits assumed).
T2 sequence (looked up): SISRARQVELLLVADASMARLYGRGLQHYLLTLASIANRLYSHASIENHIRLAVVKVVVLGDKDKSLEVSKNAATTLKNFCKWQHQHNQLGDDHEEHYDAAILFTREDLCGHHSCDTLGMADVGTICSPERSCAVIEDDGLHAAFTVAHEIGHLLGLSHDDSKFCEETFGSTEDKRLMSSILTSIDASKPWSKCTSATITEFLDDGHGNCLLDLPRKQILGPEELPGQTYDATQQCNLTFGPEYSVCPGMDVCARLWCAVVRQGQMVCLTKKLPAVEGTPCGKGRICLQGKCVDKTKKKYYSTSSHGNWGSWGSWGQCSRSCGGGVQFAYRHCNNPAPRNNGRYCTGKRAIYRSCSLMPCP

The target in assay [3] is MMP13 (human, UniProt P45452 104-471, limits assumed).

B1: Variant A2M, bait region SEQ ID NO 89 (other)
chain: SVSGKPQYMVLVPSLLHTETTEKGCVLLSYLNETVTVSASLESVRGNRSLFTDLEAENDVLHCVAFAVPKSSSNEEVMFLTVQVKGPTQEFKKRTTVMVKNEDSLVFVQTDKSIYKPGQTVKFRVVSMDENFHPLNELIPLVYIQDPKGNRIAQWQSFQLEGGLKQFSFPLSSEPFQGSYKVVVQKKSGGRTEHPFTVEEFVLPKFEVQVTVPKIITILEEEMNVSVCGLYTYGKPVPGHVTVSICRKYSDASDCHGEDSQAFCEKFSGQLNSHGCFYQQVKTKVFQLKRKEYEMKLHTEAQIQEEGTVVELTGRQSSEITRTITKLSFVKVDSHFRQGIPFFGQVRLVDGKGVPIPNKVIFIRGNEANYYSNATTDEHGLVQFSINTTNVMGTSLTVRVNYKDRSPCYGYQWVSEEHEEAHHTAYLVFSPSKSFVHLEPMSHELPCGHTQTVQAHYILNGGTLLGLKKLSFYYLIMAKGGIVRTGTHGLLVKQEDMKGHFSISIPVKSDIAPVARLLIYAVLPTGDVIGDSAKYDVENCLANKVDLSFSPSQSLPASHAHLRVTAAPQSVCALRAVDQSVLLMKPDAELSASSVYNLLPEKDLTGFPGPLNDQDDEDCINRHNVYINGITYTPVSSTNEKDMYSFLEDMGLKAFTNSKIRKPKMCPQLEQYEMHGPEGLRVGKEEEGLGSFYESDVMGRGHARLVHVEEPHTKLLRKYFPETWIWDLVVVNSAGVAEVGVTVPDTITEWKAGAFCLSEDAGLGISSTASLRAFQPFFVELTMPYSVIRGEAFTLKATVLNYLPKCIRVSVQLEASPAFLAVPVEKEQAPHCICANGRQTVSWAVTPKSLGNVNFTVSAEALESQELCGTEVPSVPEHGRKDTVIKPLLVEPEGLEKETTFNSLLCPSGGEVSEELSLKLPPNVVEESARASVSVLGDILGSAMQNTQNLLQMPYGCGEQNMVLFAPNIYVLDYLNETQQLTPEIKSKAIGYLNTGYQRQLNYKHYDGSYSTFGERYGRNQGNTWLTAFVLKTFAQARAYIFIDEAHITQALIWLSQRQKDNGCFRSSGSLLNNAIKGGVEDEVTLSAYITIALLEIPLTVTHPVVRNALFCLESAWKTAQEGDHGSHVYTKALLAYAFALAGNQDKRKEVLKSLNEEAVKKDNSVHWERPQKPKAPVGHFYEPQAPSAEVEMTSYVLLAYLTAQPAPTSEDLTSATNIVKWITKQQNAQGGFSSTQDTVVALHALSKYGAATFTRTGKAAQVTIQSSGTFSSKFQVDNNNRLLLQQVSLPELPGEYSMKVTGEGCVYLQTSLKYNILPEKEEFPFALGVQTLPQTCDEPKAHTSFQISLSVSYTGSRSASNMAIVDVKMVSGFIPLKPTVKMLERSNHVSRTEVSSNHVLIYLDKVSNQTLSLFFTVLQDVPVRDLKPAIVKVYDYYETDEFAIAEYNAPCSKDLGNADYKDDDDKGASHHHHHH
For the molecule B1, the “Protease Inhibition (% of WT)” value is 101 % of WT in assay [1], 485 % of WT in assay [2] and 1 % of WT in assay [3].

B2: Variant A2M, bait region SEQ ID NO 93 (other)
chain: SVSGKPQYMVLVPSLLHTETTEKGCVLLSYLNETVTVSASLESVRGNRSLFTDLEAENDVLHCVAFAVPKSSSNEEVMFLTVQVKGPTQEFKKRTTVMVKNEDSLVFVQTDKSIYKPGQTVKFRVVSMDENFHPLNELIPLVYIQDPKGNRIAQWQSFQLEGGLKQFSFPLSSEPFQGSYKVVVQKKSGGRTEHPFTVEEFVLPKFEVQVTVPKIITILEEEMNVSVCGLYTYGKPVPGHVTVSICRKYSDASDCHGEDSQAFCEKFSGQLNSHGCFYQQVKTKVFQLKRKEYEMKLHTEAQIQEEGTVVELTGRQSSEITRTITKLSFVKVDSHFRQGIPFFGQVRLVDGKGVPIPNKVIFIRGNEANYYSNATTDEHGLVQFSINTTNVMGTSLTVRVNYKDRSPCYGYQWVSEEHEEAHHTAYLVFSPSKSFVHLEPMSHELPCGHTQTVQAHYILNGGTLLGLKKLSFYYLIMAKGGIVRTGTHGLLVKQEDMKGHFSISIPVKSDIAPVARLLIYAVLPTGDVIGDSAKYDVENCLANKVDLSFSPSQSLPASHAHLRVTAAPQSVCALRAVDQSVLLMKPDAELSASSVYNLLPEKDLTGFPGPLNDQDDEDCINRHNVYINGITYTPVSSTNEKDMYSFLEDMGLKAFTNSKIRKPKMCPQLEQYEMHGPEGLRVGVSQELGQRFYESDVMGRGHARLVHVEEPHTKLLRKYFPETWIWDLVVVNSAGVAEVGVTVPDTITEWKAGAFCLSEDAGLGISSTASLRAFQPFFVELTMPYSVIRGEAFTLKATVLNYLPKCIRVSVQLEASPAFLAVPVEKEQAPHCICANGRQTVSWAVTPKSLGNVNFTVSAEALESQELCGTEVPSVPEHGRKDTVIKPLLVEPEGLEKETTFNSLLCPSGGEVSEELSLKLPPNVVEESARASVSVLGDILGSAMQNTQNLLQMPYGCGEQNMVLFAPNIYVLDYLNETQQLTPEIKSKAIGYLNTGYQRQLNYKHYDGSYSTFGERYGRNQGNTWLTAFVLKTFAQARAYIFIDEAHITQALIWLSQRQKDNGCFRSSGSLLNNAIKGGVEDEVTLSAYITIALLEIPLTVTHPVVRNALFCLESAWKTAQEGDHGSHVYTKALLAYAFALAGNQDKRKEVLKSLNEEAVKKDNSVHWERPQKPKAPVGHFYEPQAPSAEVEMTSYVLLAYLTAQPAPTSEDLTSATNIVKWITKQQNAQGGFSSTQDTVVALHALSKYGAATFTRTGKAAQVTIQSSGTFSSKFQVDNNNRLLLQQVSLPELPGEYSMKVTGEGCVYLQTSLKYNILPEKEEFPFALGVQTLPQTCDEPKAHTSFQISLSVSYTGSRSASNMAIVDVKMVSGFIPLKPTVKMLERSNHVSRTEVSSNHVLIYLDKVSNQTLSLFFTVLQDVPVRDLKPAIVKVYDYYETDEFAIAEYNAPCSKDLGNADYKDDDDKGASHHHHHH
In the case of B2, the “Protease Inhibition (% of WT)” value in assay [1] is 27 % of WT; in assay [2], 66 % of WT; in assay [3], 119 % of WT.

B3: Variant A2M, bait region SEQ ID NO 94 (other)
chain: SVSGKPQYMVLVPSLLHTETTEKGCVLLSYLNETVTVSASLESVRGNRSLFTDLEAENDVLHCVAFAVPKSSSNEEVMFLTVQVKGPTQEFKKRTTVMVKNEDSLVFVQTDKSIYKPGQTVKFRVVSMDENFHPLNELIPLVYIQDPKGNRIAQWQSFQLEGGLKQFSFPLSSEPFQGSYKVVVQKKSGGRTEHPFTVEEFVLPKFEVQVTVPKIITILEEEMNVSVCGLYTYGKPVPGHVTVSICRKYSDASDCHGEDSQAFCEKFSGQLNSHGCFYQQVKTKVFQLKRKEYEMKLHTEAQIQEEGTVVELTGRQSSEITRTITKLSFVKVDSHFRQGIPFFGQVRLVDGKGVPIPNKVIFIRGNEANYYSNATTDEHGLVQFSINTTNVMGTSLTVRVNYKDRSPCYGYQWVSEEHEEAHHTAYLVFSPSKSFVHLEPMSHELPCGHTQTVQAHYILNGGTLLGLKKLSFYYLIMAKGGIVRTGTHGLLVKQEDMKGHFSISIPVKSDIAPVARLLIYAVLPTGDVIGDSAKYDVENCLANKVDLSFSPSQSLPASHAHLRVTAAPQSVCALRAVDQSVLLMKPDAELSASSVYNLLPEKDLTGFPGPLNDQDDEDCINRHNVYINGITYTPVSSTNEKDMYSFLEDMGLKAFTNSKIRKPKMCPQLEQYEMHGPEGLRVGTEGEARGSFYESDVMGRGHARLVHVEEPHTKLLRKYFPETWIWDLVVVNSAGVAEVGVTVPDTITEWKAGAFCLSEDAGLGISSTASLRAFQPFFVELTMPYSVIRGEAFTLKATVLNYLPKCIRVSVQLEASPAFLAVPVEKEQAPHCICANGRQTVSWAVTPKSLGNVNFTVSAEALESQELCGTEVPSVPEHGRKDTVIKPLLVEPEGLEKETTFNSLLCPSGGEVSEELSLKLPPNVVEESARASVSVLGDILGSAMQNTQNLLQMPYGCGEQNMVLFAPNIYVLDYLNETQQLTPEIKSKAIGYLNTGYQRQLNYKHYDGSYSTFGERYGRNQGNTWLTAFVLKTFAQARAYIFIDEAHITQALIWLSQRQKDNGCFRSSGSLLNNAIKGGVEDEVTLSAYITIALLEIPLTVTHPVVRNALFCLESAWKTAQEGDHGSHVYTKALLAYAFALAGNQDKRKEVLKSLNEEAVKKDNSVHWERPQKPKAPVGHFYEPQAPSAEVEMTSYVLLAYLTAQPAPTSEDLTSATNIVKWITKQQNAQGGFSSTQDTVVALHALSKYGAATFTRTGKAAQVTIQSSGTFSSKFQVDNNNRLLLQQVSLPELPGEYSMKVTGEGCVYLQTSLKYNILPEKEEFPFALGVQTLPQTCDEPKAHTSFQISLSVSYTGSRSASNMAIVDVKMVSGFIPLKPTVKMLERSNHVSRTEVSSNHVLIYLDKVSNQTLSLFFTVLQDVPVRDLKPAIVKVYDYYETDEFAIAEYNAPCSKDLGNADYKDDDDKGASHHHHHH
Regarding B3, the “Protease Inhibition (% of WT)” value in assay [1] is 121 % of WT; in assay [2], 395 % of WT; in assay [3], 173 % of WT.

(Values after patent US20230250154A1 (CYTONICS, published 2023).)
